B3: S. cerevisiae Rvb1p-Rvb2p complex (complex)
chain 1: MVAISEVKENPGVNSSNSGAVTRTAAHTHIKGLGLDESGVAKRVEGGFVGQIEAREACGVIVDLIKAKKMSGRAILLAGGPSTGKTALALAISQELGPKVPFCPLVGSELYSVEVKKTETLMENFRRAIGLRIKETKEVYEGEVTELTPEDAENPLGGYGKTISHVIVGLKSAKGTKTLRLDPTIYESIQREKVSIGDVIYIEANTGAVKRVGRSDAYATEFDLETEEYVPLPKGEVHKKKEIVQDVTLHDLDVANARPQGGQDVISMMGQLLKPKKTEITEKLRQEVNKVVAKYIDQGVAELIPGVLFIDEVNMLDIEIFTYLNKALESNIAPVVVLASNRGMTTVRGTEDVISPHGVPPDLIDRLLIVRTLPYDKDEIRTIIERRATVERLQVESSALDLLATMGTETSLRYALQLLAPCGILAQTSNRKEIVVNDVNEAKLLFLDAKRSTKILETSANYL
chain 2: MSIQTSDPNETSDLKSLSLIAAHSHITGLGLDENLQPRPTSEGMVGQLQARRAAGVILKMVQNGTIAGRAVLVAGPPSTGKTALAMGVSQSLGKDVPFTAIAGSEIFSLELSKTEALTQAFRKSIGIKIKEETELIEGEVVEIQIDRSITGGHKQGKLTIKTTDMETIYELGNKMIDGLTKEKVLAGDVISIDKASGKITKLGRSFARSRDYDAMGADTRFVQCPEGELQKRKTVVHTVSLHEIDVINSRTQGFLALFTGDTGEIRSEVRDQINTKVAEWKEEGKAEIVPGVLFIDEVHMLDIECFSFINRALEDEFAPIVMMATNRGVSKTRGTNYKSPHGLPLDLLDRSIIITTKSYNEQEIKTILSIRAQEEEVELSSDALDLLTKTGVETSLRYSSNLISVAQQIAMKRKNNTVEVEDVKRAYLLFLDSARSVKYVQENESQYIDDQGNVQISIAKSADPDAMDTTE
notes: Rvb1p, Saccharomyces cerevisiae; Rvb2p, Saccharomyces cerevisiae; also called yR2; R2; source: expressed and purified as previously described (Rivera-Calzada et al., 2017); copies: 3 + 3

What all share (conditions): both partners purified
In assay [1] the target is T1, human TTI1, full length, untagged (human, UniProt O43156 1-1089).
T1 construct: TTI1, human, 1089 residues; In PDB 7OLE TTI1 is modelled as poly-alanine helices only; also called full-length untagged TTI1; source: Sf9, co-expressed with GST-TTI2 constructs (in lysate); co-expressed with TTI2 and TELO2 and purified within TTT
The assay is described as follows: cryo-EM structure; human R2 saturated with an excess of TTT; symmetry expansion and multi-body refinement; ADP in all six sites.

Assay [2] addresses T2, human TTI1-TTI2 subcomplex (human, UniProt O43156 1-1089; Q6NXR4 1-508).
T2 construct: TTI1, human, 1089 residues; TTI2, human, 508 residues; Cloned as TTI1 and GST-TTI2; the methods name both a cleavage of the GST-tag and GST-TTI2-TTI1 as a sample of the pull-downs; also called T2; source: Sf9, co-expressed, purified
The assay is described as follows: pull-down; GST beads hold the GST-tag on TELO2 (5 μM); 2 μM RUVBL1/2, RUVBL1/2ΔDII or isolated DII domains; 20 mM HEPES pH 7.85, 140 mM NaCl, 0.001% Tween 20; 45 min at 4°C; Coomassie-stained SDS-PAGE.

The target in assay [3] is T3, S. cerevisiae TTT complex in which Tti1p carries a C-terminal FLAG-tag (S. cerevisiae, UniProt P53038 1-688; P36097 1-1038; P47168 1-421).
T3 construct: Tel2p, Saccharomyces cerevisiae; Tti1p, Saccharomyces cerevisiae; Tti2p, Saccharomyces cerevisiae; The cloning of the FLAG-tagged Tti1p is not described in the methods; also called FLAG-tagged TTT; FLAG-tagged Tti1p; source: Sf9, purified; not shown: FLAG, C-terminal, kept; copies: + +
The assay is described as follows: co-IP; anti-FLAG beads hold yeast TTT by FLAG-tagged Tti1p; purified KmTOR-KmLst8, with or without yeast R2; Coomassie-stained SDS-PAGE.

Assay [4] addresses T4, S. cerevisiae Tel2p-Tti1p-Tti2p complex (S. cerevisiae, UniProt P53038 1-688; P36097 1-1038; P47168 1-421).
T4 construct: Tel2p, Saccharomyces cerevisiae; Tti1p, Saccharomyces cerevisiae; Tti2p, Saccharomyces cerevisiae; Purified from insect cells to ensure post-translational modifications on Tel2p; The methods say in general that the GST-tag was cleaved; also called yTTT; yeast TTT; source: Sf9, co-infected with Tti1p-Tti2p and Tel2p viruses, purified; copies: + +
The assay is described as follows: pull-down; strep beads hold the tandem strep-tag on Tah1p in yeast TP or R2TP; 20 mM HEPES pH 7.85, 140 mM NaCl, 0.5 mM TCEP, 0.03% CHAPS; 45 min at 4°C; Coomassie-stained SDS-PAGE.

For assay [5], the target named is B3. The description is as above.

T1 sequence (O43156 whole entry): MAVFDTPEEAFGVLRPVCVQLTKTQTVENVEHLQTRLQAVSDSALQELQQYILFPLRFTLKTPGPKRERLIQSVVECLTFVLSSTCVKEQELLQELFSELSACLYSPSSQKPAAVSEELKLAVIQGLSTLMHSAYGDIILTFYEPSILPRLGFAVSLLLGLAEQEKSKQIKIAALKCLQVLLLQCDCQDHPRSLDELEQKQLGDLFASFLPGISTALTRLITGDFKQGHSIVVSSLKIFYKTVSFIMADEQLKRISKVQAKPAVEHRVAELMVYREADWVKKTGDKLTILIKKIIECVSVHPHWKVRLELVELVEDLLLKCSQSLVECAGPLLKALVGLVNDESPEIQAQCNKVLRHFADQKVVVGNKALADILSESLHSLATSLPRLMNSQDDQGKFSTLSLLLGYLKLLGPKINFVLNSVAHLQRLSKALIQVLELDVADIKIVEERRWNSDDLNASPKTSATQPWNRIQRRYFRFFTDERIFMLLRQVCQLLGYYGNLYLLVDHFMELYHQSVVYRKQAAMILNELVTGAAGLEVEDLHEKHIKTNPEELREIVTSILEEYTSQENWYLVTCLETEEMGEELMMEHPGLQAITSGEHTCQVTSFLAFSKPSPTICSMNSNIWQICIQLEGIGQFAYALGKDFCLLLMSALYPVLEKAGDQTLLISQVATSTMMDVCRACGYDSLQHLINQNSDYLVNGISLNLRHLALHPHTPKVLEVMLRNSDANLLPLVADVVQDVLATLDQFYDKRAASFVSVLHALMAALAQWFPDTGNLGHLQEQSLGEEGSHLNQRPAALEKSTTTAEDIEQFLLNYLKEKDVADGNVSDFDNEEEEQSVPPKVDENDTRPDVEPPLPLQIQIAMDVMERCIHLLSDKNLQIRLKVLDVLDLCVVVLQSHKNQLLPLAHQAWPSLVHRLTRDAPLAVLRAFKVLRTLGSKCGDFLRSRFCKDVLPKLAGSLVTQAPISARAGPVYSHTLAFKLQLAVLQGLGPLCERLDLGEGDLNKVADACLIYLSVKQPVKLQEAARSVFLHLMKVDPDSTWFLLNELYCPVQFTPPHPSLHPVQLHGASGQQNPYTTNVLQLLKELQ
T4 sequence (P53038 whole entry, chain 1 of 3): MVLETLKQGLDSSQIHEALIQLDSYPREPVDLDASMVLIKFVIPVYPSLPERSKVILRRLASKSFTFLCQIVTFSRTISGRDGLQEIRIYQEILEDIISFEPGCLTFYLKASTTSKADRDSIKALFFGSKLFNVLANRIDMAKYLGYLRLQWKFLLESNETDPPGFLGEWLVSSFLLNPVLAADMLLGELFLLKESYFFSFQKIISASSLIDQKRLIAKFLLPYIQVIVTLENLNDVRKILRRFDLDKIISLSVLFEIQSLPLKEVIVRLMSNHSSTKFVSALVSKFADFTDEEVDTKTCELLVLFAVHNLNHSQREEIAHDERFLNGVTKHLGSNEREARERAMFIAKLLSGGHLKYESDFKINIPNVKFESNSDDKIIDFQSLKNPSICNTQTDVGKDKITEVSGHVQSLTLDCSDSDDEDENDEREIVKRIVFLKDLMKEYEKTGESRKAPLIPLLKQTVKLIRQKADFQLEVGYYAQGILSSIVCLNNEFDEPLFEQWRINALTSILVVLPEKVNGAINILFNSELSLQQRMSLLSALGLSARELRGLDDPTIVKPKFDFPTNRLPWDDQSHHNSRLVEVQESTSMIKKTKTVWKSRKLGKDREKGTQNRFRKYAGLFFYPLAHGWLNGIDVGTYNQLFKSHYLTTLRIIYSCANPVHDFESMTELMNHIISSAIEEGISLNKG
T4 sequence (P36097 whole entry, chain 2 of 3): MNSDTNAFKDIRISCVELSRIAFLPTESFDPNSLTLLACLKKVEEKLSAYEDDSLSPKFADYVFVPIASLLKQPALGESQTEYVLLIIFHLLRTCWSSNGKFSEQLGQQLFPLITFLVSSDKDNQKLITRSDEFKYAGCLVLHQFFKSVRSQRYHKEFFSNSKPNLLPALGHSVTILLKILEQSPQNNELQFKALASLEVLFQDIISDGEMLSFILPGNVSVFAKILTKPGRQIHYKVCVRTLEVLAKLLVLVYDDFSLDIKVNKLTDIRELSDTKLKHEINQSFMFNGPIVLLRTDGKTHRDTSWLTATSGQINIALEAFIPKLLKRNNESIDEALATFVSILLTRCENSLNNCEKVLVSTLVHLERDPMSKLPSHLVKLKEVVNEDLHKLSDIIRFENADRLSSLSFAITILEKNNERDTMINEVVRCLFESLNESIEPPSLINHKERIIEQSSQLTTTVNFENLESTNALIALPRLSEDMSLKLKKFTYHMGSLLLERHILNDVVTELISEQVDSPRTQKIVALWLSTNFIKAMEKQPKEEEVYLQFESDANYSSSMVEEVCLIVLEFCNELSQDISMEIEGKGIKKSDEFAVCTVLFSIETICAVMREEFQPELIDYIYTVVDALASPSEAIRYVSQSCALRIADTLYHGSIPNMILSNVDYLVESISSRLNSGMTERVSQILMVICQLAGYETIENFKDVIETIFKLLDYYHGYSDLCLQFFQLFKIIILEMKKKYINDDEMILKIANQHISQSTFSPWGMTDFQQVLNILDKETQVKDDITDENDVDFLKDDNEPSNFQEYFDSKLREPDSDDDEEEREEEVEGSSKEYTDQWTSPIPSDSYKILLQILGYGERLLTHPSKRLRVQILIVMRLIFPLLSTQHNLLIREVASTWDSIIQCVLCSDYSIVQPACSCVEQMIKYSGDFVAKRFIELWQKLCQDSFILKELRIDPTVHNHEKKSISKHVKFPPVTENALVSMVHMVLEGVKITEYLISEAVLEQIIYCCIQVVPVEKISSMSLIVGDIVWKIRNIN
T4 sequence (P47168 whole entry, chain 3 of 3): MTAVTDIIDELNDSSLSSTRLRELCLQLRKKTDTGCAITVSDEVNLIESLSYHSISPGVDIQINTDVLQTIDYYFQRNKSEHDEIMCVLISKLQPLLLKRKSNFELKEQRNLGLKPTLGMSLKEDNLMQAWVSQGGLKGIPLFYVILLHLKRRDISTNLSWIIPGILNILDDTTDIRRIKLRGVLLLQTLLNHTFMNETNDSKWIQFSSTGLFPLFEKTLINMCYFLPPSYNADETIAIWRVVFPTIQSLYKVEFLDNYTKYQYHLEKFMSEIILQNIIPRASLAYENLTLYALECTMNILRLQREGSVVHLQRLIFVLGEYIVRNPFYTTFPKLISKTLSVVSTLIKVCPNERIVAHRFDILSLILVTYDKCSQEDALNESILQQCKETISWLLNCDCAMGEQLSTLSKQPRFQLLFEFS
T3 sequence (P53038 whole entry, chain 1 of 3): as the sequence (P53038 whole entry, chain 1 of 3) above
T3 sequence (P36097 whole entry, chain 2 of 3): as the sequence (P36097 whole entry, chain 2 of 3) above
T3 sequence (P47168 whole entry, chain 3 of 3): as the sequence (P47168 whole entry, chain 3 of 3) above
T2 sequence (O43156 whole entry, one chain of several): as the sequence (O43156 whole entry) above

B1: human TELO2 (as in the purified TTT complex) (natural protein, UniProt Q9Y4R8 1-837, looked up)
chain: MEPAPSEVRLAVREAIHALSSSEDGGHIFCTLESLKRYLGEMEPPALPREKEEFASAHFSPVLRCLASRLSPAWLELLPHGRLEELWASFFLEGPADQAFLVLMETIEGAAGPSFRLMKMARLLARFLREGRLAVLMEAQCRQQTQPGFILLRETLLGKVVALPDHLGNRLQQENLAEFFPQNYFRLLGEEVVRVLQAVVDSLQGGLDSSVSFVSQVLGKACVHGRQQEILGVLVPRLAALTQGSYLHQRVCWRLVEQVPDRAMEAVLTGLVEAALGPEVLSRLLGNLVVKNKKAQFVMTQKLLFLQSRLTTPMLQSLLGHLAMDSQRRPLLLQVLKELLETWGSSSAIRHTPLPQQRHVSKAVLICLAQLGEPELRDSRDELLASMMAGVKCRLDSSLPPVRRLGMIVAEVVSARIHPEGPPLKFQYEEDELSLELLALASPQPAGDGASEAGTSLVPATAEPPAETPAEIVDGGVPQAQLAGSDSDLDSDDEFVPYDMSGDRELKSSKAPAYVRDCVEALTTSEDIERWEAALRALEGLVYRSPTATREVSVELAKVLLHLEEKTCVVGFAGLRQRALVAVTVTDPAPVADYLTSQFYALNYSLRQRMDILDVLTLAAQELSRPGCLGRTPQPGSPSPNTPCLPEAAVSQPGSAVASDWRVVVEERIRSKTQRLSKGGPRQGPAGSPSRFNSVAGHFFFPLLQRFDRPLVTFDLLGEDQLVLGRLAHTLGALMCLAVNTTVAVAMGKALLEFVWALRFHIDAYVRQGLLSAVSSVLLSLPAARLLEDLMDELLEARSWLADVAEKDPDEDCRTLALRALLLLQRLKNRLLPPASP
notes: TELO2, human; Only the N-terminal domain (TELO2-N) is seen in the map; source: Sf9, purified within TTT; not shown: GST, N-terminal, cleaved
On to B1, for which the binding result in assay [1] is “binds”.

B2: human GST-TELO2 (natural protein, UniProt Q9Y4R8 1-837, looked up)
chain: MEPAPSEVRLAVREAIHALSSSEDGGHIFCTLESLKRYLGEMEPPALPREKEEFASAHFSPVLRCLASRLSPAWLELLPHGRLEELWASFFLEGPADQAFLVLMETIEGAAGPSFRLMKMARLLARFLREGRLAVLMEAQCRQQTQPGFILLRETLLGKVVALPDHLGNRLQQENLAEFFPQNYFRLLGEEVVRVLQAVVDSLQGGLDSSVSFVSQVLGKACVHGRQQEILGVLVPRLAALTQGSYLHQRVCWRLVEQVPDRAMEAVLTGLVEAALGPEVLSRLLGNLVVKNKKAQFVMTQKLLFLQSRLTTPMLQSLLGHLAMDSQRRPLLLQVLKELLETWGSSSAIRHTPLPQQRHVSKAVLICLAQLGEPELRDSRDELLASMMAGVKCRLDSSLPPVRRLGMIVAEVVSARIHPEGPPLKFQYEEDELSLELLALASPQPAGDGASEAGTSLVPATAEPPAETPAEIVDGGVPQAQLAGSDSDLDSDDEFVPYDMSGDRELKSSKAPAYVRDCVEALTTSEDIERWEAALRALEGLVYRSPTATREVSVELAKVLLHLEEKTCVVGFAGLRQRALVAVTVTDPAPVADYLTSQFYALNYSLRQRMDILDVLTLAAQELSRPGCLGRTPQPGSPSPNTPCLPEAAVSQPGSAVASDWRVVVEERIRSKTQRLSKGGPRQGPAGSPSRFNSVAGHFFFPLLQRFDRPLVTFDLLGEDQLVLGRLAHTLGALMCLAVNTTVAVAMGKALLEFVWALRFHIDAYVRQGLLSAVSSVLLSLPAARLLEDLMDELLEARSWLADVAEKDPDEDCRTLALRALLLLQRLKNRLLPPASP
notes: TELO2, human; The tagged subunit of m4, as the bait with which TTI1-TTI2 is found; also called GST-TEL2; not shown: GST, N-terminal, kept
Take B2: the binding result in assay [2] was “binds”.
As for B3, the binding result in assay [3] is recorded as “binds”.

B4: human TTI2 (as in the purified TTT complex) (natural protein, UniProt Q6NXR4 1-508, looked up)
chain: MELDSALEAPSQEDSNLSEELSHSAFGQAFSKILHCLARPEARRGNVKDAVLKDLGDLIEATEFDRLFEGTGARLRGMPETLGQVAKALEKYAAPSKEEEGGGDGHSEAAEKAAQVGLLFLKLLGKVETAKNSLVGPAWQTGLHHLAGPVYIFAITHSLEQPWTTPRSREVAREVLTSLLQVTECGSVAGFLHGENEDEKGRLSVILGLLKPDLYKESWKNNPAIKHVFSWTLQQVTRPWLSQHLERVLPASLVISDDYQTENKILGVHCLHHIVLNVPAADLLQYNRAQVLYHAISNHLYTPEHHLIQAVLLCLLDLFPILEKTLHWKGDGARPTTHCDEVLRLILTHMEPEHRLLLRRTYARNLPAFVNRLGILTVRHLKRLERVIIGYLEVYDGPEEEARLKILETLKLLMQHTWPRVSCRLVVLLKALLKLICDVARDPNLTPESVKSALLQEATDCLILLDRCSQGRVKGLLAKIPQSCEDRKVVNYIRKVQQVSEGAPYNGT
notes: TTI2, human, 508 residues; In PDB 7OLE TTI2 is modelled as poly-alanine helices only; source: Sf9, purified within TTT
Take B4: the binding result in assay [1] is given as “binds”.

B5: S. cerevisiae Tah1p-Pih1p complex with a tandem strep-tag on the N terminus of Tah1p (complex)
chain 1: MSQFEKQKEQGNSLFKQGLYREAVHCYDQLITAQPQNPVGYSNKAMALIKLGEYTQAIQMCQQGLRYTSTAEHVAIRSKLQYRLELAQGAVGSVQIPVVEVDELPEGYDRS
chain 2: MADFLLRPIKQRHRNEDKYVSVDAADGSVSKIEPIADFVIKTKLLSANGPEKLQDGRKVFINVCHSPLVPKPEVDFNARIVFPLIIQNEWEIPIITSCYRMDHDKKGQECYVWDCCINSDCSRWICDDIQLREILVEWCLESCEIRDSVVLCRDRIAFPKMKKKGAELPALEVLNDELHQDYKAKMHKIIEEEAGDPMSILRGRNDDGDDNNDPDDGTLPPLFPIENKISGAKIEEIDKNEIAHRNLKQAPAPAPAPHEQQEDVPEYEVKMKRFKGAAYKLRILIENKAPNSKPDRFSPSYNFAENILYINGKLSIPLPRDIVVNAADIKIFHIRKERTLYIYI
notes: Tah1p, Saccharomyces cerevisiae; Pih1p, Saccharomyces cerevisiae; also called yTP; TP; source: expressed and purified as previously described (Rivera-Calzada et al., 2017); not shown: tandem Strep, N-terminal, kept
For the molecule B5, the binding result in assay [4] and in assay [5] was “binds” throughout.

The values are drawn from PMC8278493, “Structure of the TELO2-TTI1-TTI2 complex and its function in TOR recruitment to the R2TP chaperone” (Cell Reports, 2021).
